B1: 561_01_21 (antibody, V domains shown)
VH: QRRLFQSGTEVKRPGASVKISCRADDDPYTDDDTFTKYYTHWIRQAPGQRPEWLGVISPHFARPIYSYKFQDRLTLTRDSSLTAVYFELRGLQPDDTGIYFCARDPFGDMYPHYNYHMDVWGGGTTVIVSA
VL: EVVLTQSPAILSVSPGDRVILSCKASEGLSSSDLAWYRFKGGQIPTLVIFGTSTRARGTPDRFSGSGSGTDFTLTISRVEPEDFATYYCQRYGGTPITFGGGTTLDKK
B2: 561_02_27 (antibody, V domains shown)
VH: B1 VH with R2G, F61Y, Q71R
VL: B1 VL with T52A, T54N, S77N
B3: 561_01_33 (antibody, V domains shown)
VH: B1 VH with R2G, Q71R
VL: B1 VL with T54N, S77N, E80Q
B4: 561_02_22 (antibody, V domains shown)
VH: B1 VH with R2G, T9A, Q71R
VL: B1 VL with G51A, T54N, R78K, E80Q
B5: 561_01_54 (antibody, V domains shown)
VH: B1 VH with R2G, G91D, P94S, Y116S
VL: B1 VL with G41S, T52A, T54N, S77N
B6: 561_02_47 (antibody, V domains shown)
V domain 1: B1 VH with F61Y, V127L
V domain 2: B1 VL with G41S, T52A, T54N, S64A, S77N
B7: 561_02_10 (antibody, V domains shown)
VH: B1 VH with R2G, Y39H, F61Y, D109N
VL: B1 VL with G41R, T52A, S77N
B8: 561_10_07 (antibody, V domains shown)
VH: QGRFFQSGAEVKRPGASVRISCRADDDPYTDDDTFTKYWTHWIRQAPGQRPEWLGVISPHFARPIYSYKFRDRLTLTRDSSLTAVYLELQGLQPDDSGIYYCARDPFGDRAPHYNYHMDVWGGGTAVIVSS
VL: B1 VL with K24R, S30D, S31P, S32T, D33H, G41R, T54N, G69E, T70A, S77T
B9: 561_01_23 (antibody, V domains shown)
VH: QLVQSGGGVRRPGASVKISCETPEYTFTKYWLHWLRQAPGRGLEWMGVVSPHGGRPMFAFEFRDRLTLTRDIHTTTHYMELRGLTSDDTAVYFCARDSFGETFRGHDQPYQMDVWGGGTTVVVSS
VL: EPVLTQSPGTLSLSPGEGATLSCRARQGFSADHVAWFQKKPGRPPRLLIFEASRRASGTPERFSGGGSGPEYTLTITRVEPEDFAVYYCQSYGSITPLVFGGGTRVDVK
B10: 561_02_12 (antibody, V domains shown)
VH: B9 VH with Y25D, R41Q, Y78F, F93Y, S98P, Q111R, V121I
VL: B9 VL with L13V, G66S, P81A
B11: 561_03_07 (antibody, V domains shown)
VH: B9 VH with Y25D, R41Q, Y78F, R82G, F93Y, S98P, Q111R, V121I
VL: B9 VL with L13V, G66S
B12: 561_02_21 (antibody, V domains shown)
VH: B9 VH with R10K, R41Q, R82G, S86L, F93Y, S98P, H106R, D107E, V121I, S124T
VL: B9 VL with P2A, V3L, G66S
B13: 561_01_29 (antibody, V domains shown)
VH: B9 VH with I18V, V114L
VL: B9 VL with A19V, A52T
B14: 561_03_78 (antibody, V domains shown)
VH: B9 VH with R82G, F93Y, S98P, V121I
VL: B9 VL with G18R, G66S
B15: 561_03_59 (antibody, V domains shown)
VH: B8 VH with G2R, F4L, A9T, R71Q, A84G, Q90K, P94L, Y101F
VL: EVVLTQSPAILSVSPGDRVSFSCRASEGLDTSQLAWYRFKRGQIPTLVIFATSNRARGTPDRFSGSGSGADFTLTINRVEPEDFATYYCQRYGATPITFGGGTTLDKK
B16: 561_09_23 (antibody, V domains shown)
VH: QAHLFQSGAELKRPGASVRISCRADDDPYTDDDTFTKYYTHWIRQAPGQRPEWLGVISPHFARPIYSYKFQDRLTLTRDSSLTAVYLELRSLRLDDTGIYYCARDPFGERAPHYNYHMDVWGAGTTVIVSS
VL: EVVLTQSPAILSASPGDRVVLSCRASEGLDSSQLAWYRFKDGQIPRLVLFGVSNRARGTPDRFSGGGSGADFTLTISRVEREDFATYYCQRFGATPITFGGGTRLDMN
B17: 561_08_52 (antibody, V domains shown)
VH: QLVQWGGGVKRPGASVRISCQCPEDTFTKYYIHWVRQAPGRGLEWLGMVSPHGGRPFHTSEFRDRLTMTRDIHETTHHMVLSGLGVADSGTYFCARDPLGEKSPAYSHHMDVWGGGATVIVSS
VL: AVVLTQSPVTLSVSPGETAILSCRASHGLDTRHVTWFQQKRGQAPRLLIFATYRRASGVSDRFRATDSGSATDFNLTITAVEPADFATYFCQTYGAITPITFGGGTKVDLK
B18: 561_09_89 (antibody, V domains shown)
VH: B17 VH with D71E, A87G
VL: B17 VL with T18S, I20V, Y53S, S68G, F90Y, V108L
B19: 561_09_71 (antibody, V domains shown)
VH: QLAQSGGGVKKPGASVKISCVTPESTFTKYWLHWVRQAPGQGFEWLGVVSPHGGRPMFANKFRDRLTLTRDIHTTTHYMELRGLTSDDTAIYYCARDSFGETFRHSGDQPYQMDVWGGGTNIVVSS
VL: EPVLTQSPGTLSLSPGERATLSCRASQGFSVDHLAWFQKRPGRPPRLLIFETSRRANGSPDRFSGSASGAEYTLTISNVEPEDFAVYYCQSYGSITPLIFGGGTRVDVK

Substitutions are numbered along the chain they refer to.

The first assay has as its target BG505_(SOSIP.664) Env trimer (HIV-1 BG505 (clade A), SOSIP.664 with …, stabilised).
B1: the binding result is listed as “binds”.

In the case of B2, the binding result is listed as “binds”.

As to B3, the binding result is “binds”.

On to B4, for which the binding result is “binds”.

Regarding B5, the binding result is “binds”.

On to B6, for which the binding result is recorded as “binds”.

For the molecule B7, the binding result is on record as “binds”.

Consider B8, for which the binding result is recorded as “binds”.

With B9, the binding result is “binds”.

For the molecule B10, the binding result is given as “binds”.

On to B11, for which the binding result is “binds”.

B12: the binding result is on record as “binds”.

On to B13, for which the binding result was “binds”.

For the molecule B14, the binding result was “binds”.

As for B15, the binding result is “binds”.

Consider B16, for which the binding result is listed as “binds”.

Turning to B17, the binding result is listed as “binds”.

Turning to B18, the binding result is on record as “binds”.

With B19, the binding result was “binds”.

The target in the next assay is YU2_(gp140) (foldon trimer) (HIV-1 (strain YU2)).
With B1, the binding result was “binds”.

Take B2: the binding result is “binds”.

Take B3: the binding result is listed as “binds”.

On to B4, for which the binding result is on record as “binds”.

Turning to B5, the binding result was “binds”.

B6: the binding result is given as “binds”.

Take B7: the binding result is listed as “binds”.

B8: the binding result is listed as “binds”.

Regarding B9, the binding result is on record as “binds”.

Turning to B10, the binding result is given as “binds”.

For the molecule B11, the binding result was “binds”.

In the case of B12, the binding result is on record as “binds”.

As for B13, the binding result is recorded as “binds”.

In the case of B14, the binding result is listed as “binds”.

For B15, the binding result is “binds”.

Consider B16, for which the binding result is listed as “binds”.

For the molecule B17, the binding result is listed as “binds”.

As for B18, the binding result is given as “binds”.

Turning to B19, the binding result was “binds”.

The record behind these values is article PMC7042716 (Cell, 2020).
